Values quoted from earlier work in article PMC5268426.
Read-outs that look alike come from different tables or passages of the source.

Columns and labels:
[1] = target: Pancreatic trypsin inhibitor (PTI) (Bos taurus) (UniProt P00974)
[2] = target: Pancreatic trypsin inhibitor (PTI) (Bos taurus) (UniProt P00974); remark: listed apart in the source
Prostasin (Homo sapiens) = Prostasin (Homo sapiens) (UniProt Q16651)

Substance: Trypsinogen (from UniProt P00760)
- Kd [1]: 2000 nM

Substance: Trypsin (from UniProt P00760)
- Kd [2]: 0.06 pM

Substance: HAI-2 (from UniProt O43291)
- Ki (Prostasin (Homo sapiens)): 5 nM
